Molecular target: histone H3 methylated on lysine 9 and phosphorylated on serine 10
Test: binding graph, method not stated (FIG. 2)

fold drop in binding affinity (against H3 methylated on Lys 9 without phospho-Ser 10): 100 fold
Substance: HP1 (heterochromatin protein 1)

— patent US20060073517A1
